# Results published in the supplement of paper PMC10724198.
# ± gives the standard deviation of the averaged measurements.
# Tested on: Saccharomyces cerevisiae
# Experiment: protein stability index of tFT-peptide fusion (C-terminal peptide) (PSI (0-1 scale)); higher = more stable (slower turnover)
# Conditions: genetic background: wild type; temperature: 30 C
# 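Note: PSI is a weighted mean of sequencing reads over stability bins, variants kept only with over 10 reads, mCherry proximal and sfGFP distal, peptide attached via GGGS linker.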
row,Sequence,protein stability index
1,PPPLFPPSSLLP,0.706 ± 0.033
2,PPPLLSAPPHCE,0.684 ± 0.052
3,PPPLPLLPSSPL,0.685 ± 0.013
4,PPPLPLPSPPPS,0.664 ± 0.08
5,PPPLPPAPPSPP,0.703 ± 0.19
6,PPPLPPLPPPTL,0.698 ± 0.045
7,PPPLPPPLILTP,0.643 ± 0.054
8,PPPLPPPPAPPY,0.734 ± 0.018
9,PPPLPPPPASPP,0.685 ± 0.01
10,PPPLPPPTPLSP,0.5736 ± 0.0043
11,PPPLPPQTLTFC,0.729 ± 0.075
12,PPPLPSAPPTGT,0.706 ± 0.026
13,PPPLPSPPPRLP,0.693 ± 0.014
14,PPPLRFLSFPPS,0.661 ± 0.057
15,PPPLRPPPPPLP,0.645 ± 0.021
16,PPPLSCPSRPSL,0.526 ± 0.12
17,PPPLSFPSVYLT,0.75 ± 0.12
18,PPPLSPSFIPPP,0.698 ± 0.042
19,PPPLTPPTCLPP,0.644 ± 0.013
20,PPPMSVAVFPFG,0.678 ± 0.03
21,PPPNSPPRPPLS,0.7035 ± 0.0046
22,PPPPALIHSRPP,0.7406 ± 0.0045
23,PPPPARSPLTPL,0.725 ± 0.15

row,Sequence,protein stability index
1,PPPPDLPYPLPL,0.754 ± 0.025
2,PPPPFLPVLLFP,0.696 ± 0.08
3,PPPPFPPPPPHS,0.719 ± 0.039
4,PPPPGPPPPSSL,0.6914 ± 0.006
5,PPPPLCPPPLSF,0.638 ± 0.016
6,PPPPLPAPLSPA,0.651 ± 0.021
7,PPPPLRPHHLTS,0.696 ± 0.021
8,PPPPLRSPPRSF,0.713 ± 0.02
9,PPPPLSPPPAPA,0.682 ± 0.048
10,PPPPPAPLLLLP,0.78 ± 0.1
11,PPPPPAPPPVSI,0.659 ± 0.071
12,PPPPPASTPASS,0.6808 ± 0.0013
13,PPPPPHALSPPP,0.664 ± 0.011
14,PPPPPHTSPSPT,0.744 ± 0.042
15,PPPPPLGPLPAL,0.688 ± 0.012
16,PPPPPLLPPPPA,0.721 ± 0.02
17,PPPPPLLPPSLR,0.671 ± 0.073
18,PPPPPLPALPHL,0.627 ± 0.023
19,PPPPPLPHPVPP,0.6206 ± 0.005
20,PPPPPLPPPPSP,0.656 ± 0.052
21,PPPPPLPPPTPP,0.568 ± 0.024
22,PPPPPLPRALST,0.72 ± 0.044
23,PPPPPLQRFPPF,0.644 ± 0.046

row,Sequence,protein stability index
1,PPPPPLSLPPPA,0.693 ± 0.024
2,PPPPPLSPPPRP,0.68631 ± 0.00031
3,PPPPPLSSPPSP,0.652 ± 0.049
4,PPPPPPAASSSP,0.692 ± 0.047
5,PPPPPPFLPRLP,0.721 ± 0.14
6,PPPPPPFPSSPP,0.698 ± 0.013
7,PPPPPPLSPPSP,0.659 ± 0.012
8,PPPPPPPPAPPS,0.68 ± 0.035
9,PPPPPPPPPCHL,0.644 ± 0.078
10,PPPPPPPPPDPA,0.666 ± 0.013
11,PPPPPPPPPLFP,0.703 ± 0.022
12,PPPPPPPPPSFP,0.65 ± 0.0086
13,PPPPPPPPRLTF,0.698 ± 0.094
14,PPPPPPSPHPPL,0.709 ± 0.01
15,PPPPPPSPPPPP,0.713 ± 0.038
16,PPPPPPTPDPLA,0.666 ± 0.048
17,PPPPPRPPPPAP,0.5949 ± 0.0051
18,PPPPPRPPRLLS,0.651 ± 0.1
19,PPPPPSPDSNLF,0.733 ± 0.067
20,PPPPPSPLPPRP,0.624 ± 0.045
21,PPPPPSPRALLP,0.657 ± 0.028
22,PPPPPVLPPRPP,0.713 ± 0.075
23,PPPPRHPAAAPP,0.7668 ± 0.0075

row,Sequence,protein stability index
1,PPPPRSPPLPRL,0.743 ± 0.061
2,PPPPRSPSLLSP,0.651 ± 0.059
3,PPPPTPPPHSPP,0.656 ± 0.022
4,PPPPTPPPRTSP,0.739 ± 0.063
5,PPPPVFPQPTPA,0.6425 ± 0.0023
6,PPPPVPSLLLLS,0.579 ± 0.019
7,PPPRFCSLPDHL,0.636 ± 0.049
8,PPPRHSPRPPCI,0.746 ± 0.11
9,PPPRLPPPPHAL,0.795 ± 0.044
10,PPPRLPPPPPPP,0.679 ± 0.048
11,PPPRPAPPSSHS,0.641 ± 0.044
12,PPPRPHPTRLSY,0.576 ± 0.054
13,PPPRPPPLPSPV,0.616 ± 0.0093
14,PPPRPPPPLSHS,0.632 ± 0.04
15,PPPRPRSLTCPA,0.73 ± 0.14
16,PPPRPSPPPSRP,0.684 ± 0.021
17,PPPRSPRSLPPL,0.676 ± 0.017
18,PPPSCPLSPPRL,0.668 ± 0.0046
19,PPPSLPFPPPHP,0.6827 ± 0.0029
20,PPPSPALPLPPY,0.712 ± 0.019
21,PPPSPFLPPRAP,0.709 ± 0.051
22,PPPSPLLLFPPL,0.645 ± 0.11
23,PPPSPPLPPFSL,0.7056 ± 0.00078

row,Sequence,protein stability index
1,PPPSPPLPPPLL,0.696 ± 0.05
2,PPPSPPPPPLLP,0.6508 ± 0.0016
3,PPPSPPPTSNPN,0.742 ± 0.04
4,PPPSPPPYRLPP,0.7 ± 0.016
5,PPPSPPSTTPPL,0.672 ± 0.07
6,PPPSPPTAPAAP,0.713 ± 0.038
7,PPPSPTPGHPQL,0.718 ± 0.044
8,PPPTDSQTTWHP,0.705 ± 0.018
9,PPPTPAPLLVPS,0.598 ± 0.0091
10,PPPTPPPGTYSL,0.579 ± 0.011
11,PPPTPPSPPRPH,0.71 ± 0.068
12,PPPTRPSQAPHL,0.645 ± 0.11
13,PPPTSPRSPVPI,0.697 ± 0.021
14,PPPVPPTPFLTR,0.744 ± 0.11
15,PPPVPTRPSPPP,0.6737 ± 0.0047
16,PPPYDPPRPLPR,0.7209 ± 0.0027
17,PPRAPPPPVPPL,0.598 ± 0.03
18,PPRLAPPDPSLL,0.673 ± 0.022
19,PPRLHPAPPPRT,0.747 ± 0.033
20,PPRLPLSHPPEP,0.634 ± 0.022
21,PPRLRSPTPFLL,0.755 ± 0.027
22,PPRLSPAPPASP,0.605 ± 0.009
23,PPRPPHPAPSPH,0.638 ± 0.024

row,Sequence,protein stability index
1,PPRPPPPPLRST,0.758 ± 0.078
2,PPRPPSPLPLPP,0.687 ± 0.016
3,PPRPSLLPRALF,0.642 ± 0.041
4,PPRPSPPLSPLP,0.72 ± 0.042
5,PPRVSLLSPPPP,0.693 ± 0.034
6,PPRVSLLTPSPR,0.853 ± 0.21
7,PPSASLAPFLSP,0.722 ± 0.12
8,PPSLPLLPPHPP,0.562 ± 0.011
9,PPSLRVVMVVGR,0.611 ± 0.056
10,PPSMRQRKRSGP,0.746 ± 0.028
11,PPSPAPLHPSTS,0.661 ± 0.047
12,PPSPAPPPASPP,0.651 ± 0.035
13,PPSPCRTHRLYI,0.629 ± 0.022
14,PPSPLAPPLPPP,0.709 ± 0.036
15,PPSPLPPAPPSP,0.668 ± 0.029
16,PPSPPDLPPHPP,0.618 ± 0.027
17,PPSPPPPPKIPP,0.627 ± 0.055
18,PPSPPPPPPPTP,0.699 ± 0.043
19,PPSPPPPPSSPP,0.707 ± 0.071
20,PPSPPPPRPSFP,0.713 ± 0.0096
21,PPSPPRPPTSFL,0.608 ± 0.057
22,PPSPPSPPPPLP,0.69 ± 0.012
23,PPSPPTPPPPLP,0.66 ± 0.0085

row,Sequence,protein stability index
1,PPSPRPPRPLFA,0.664 ± 0.021
2,PPSPYNPPSTAN,0.722 ± 0.0091
3,PPSRDRATSPSE,0.656 ± 0.023
4,PPSRNPPDLDTQ,0.682 ± 0.14
5,PPSSFHFVVPHP,0.684 ± 0.054
6,PPSTFDPSTLRP,0.665 ± 0.041
7,PPSTSPTLTSAR,0.722 ± 0.016
8,PPSVLPLPPSLP,0.732 ± 0.043
9,PPSVPPPLPHPV,0.74 ± 0.037
10,PPTFPPPLPLPP,0.692 ± 0.031
11,PPTGHAPSRALT,0.676 ± 0.091
12,PPTPAPLSPPYV,0.712 ± 0.026
13,PPTSLRFRPPYC,0.682 ± 0.046
14,PPVAPTPFPPPS,0.684 ± 0.018
15,PPVFYAPLVTER,0.7 ± 0.035
16,PPVPPPAPPHPR,0.753 ± 0.14
17,PPVPPPLPYLPP,0.624 ± 0.031
18,PPVPRSPPPRRS,0.719 ± 0.12
19,PPVPSLFPPPPH,0.674 ± 0.038
20,PPVRPRPDPACR,0.727 ± 0.031
21,PPVSPPLPPPPH,0.704 ± 0.03
22,PPVWSSLPPPPF,0.721 ± 0.018
